Results taken from patent publication US12698507B2, “Methods and compositions for conferring and/or enhancing herbicide tolerance using protoporphyrinogen IX oxidase of various cyanobacteria or variant thereof” (FarmHannong Co., Ltd., priority 2019, dated 2026).
Residue numbers refer to the chain shown, from its start. Names and notes keep the numbering of the source.

How the values were obtained:
[1] = molecular target: Thermosynechococcus elongatus PKUAC-SCTE542 protoporphyrinogen IX oxidase CyPPO19 (SEQ ID NO: 1) variant A167L (MBP fusion) (Thermosynechococcus sichuanensis, UniProt A0A7D6JSC1, A167L); test: biochemical; details: 50 μM protoporphyrinogen IX, pH 7.5, room temperature, 30 min, 10,000 means equivalent to or higher, read-out: IC50
[2] = molecular target: Thermosynechococcus elongatus PKUAC-SCTE542 protoporphyrinogen IX oxidase CyPPO19 (SEQ ID NO: 1) variant V165C (MBP fusion) (Thermosynechococcus sichuanensis, UniProt A0A7D6JSC1, V165C); test: PPO enzyme inhibition assay (IC50 for herbicides), CyPPO19 V165C fused to MBP; assay type: biochemical
[3] = molecular target: Thermosynechococcus elongatus PKUAC-SCTE542 protoporphyrinogen IX oxidase CyPPO19 (SEQ ID NO: 1) variant R89A (MBP fusion) (Thermosynechococcus sichuanensis, UniProt A0A7D6JSC1, R89A); test: biochemical
[4] = molecular target: T1, Thermosynechococcus elongatus PKUAC-SCTE542 protoporphyrinogen IX oxidase CyPPO19, wild type, SEQ ID NO: 1 (MBP fusion) (Thermosynechococcus sichuanensis, UniProt A0A7D6JSC1); test: PPO enzyme inhibition assay (IC50 for herbicides), CyPPO19 wild type fused to MBP; assay type: biochemical
T1 sequence (A0A7D6JSC1 1-467): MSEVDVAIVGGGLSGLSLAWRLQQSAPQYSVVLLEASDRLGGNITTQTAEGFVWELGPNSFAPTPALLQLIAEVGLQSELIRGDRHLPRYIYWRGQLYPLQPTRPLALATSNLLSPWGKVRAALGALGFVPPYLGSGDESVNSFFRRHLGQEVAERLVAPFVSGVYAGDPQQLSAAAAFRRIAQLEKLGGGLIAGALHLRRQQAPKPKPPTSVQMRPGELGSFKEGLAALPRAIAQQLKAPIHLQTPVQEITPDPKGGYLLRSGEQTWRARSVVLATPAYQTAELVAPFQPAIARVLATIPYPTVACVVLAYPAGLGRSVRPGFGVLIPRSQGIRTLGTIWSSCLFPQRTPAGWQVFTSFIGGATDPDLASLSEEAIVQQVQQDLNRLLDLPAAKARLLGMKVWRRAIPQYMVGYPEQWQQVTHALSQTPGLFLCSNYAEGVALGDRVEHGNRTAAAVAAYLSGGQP

[5] = molecular target: Thermosynechococcus elongatus PKUAC-SCTE542 protoporphyrinogen IX oxidase CyPPO19 (SEQ ID NO: 1) variant V165S (MBP fusion) (Thermosynechococcus sichuanensis, UniProt A0A7D6JSC1, V165S); test: biochemical; details: 50 μM protoporphyrinogen IX, pH 7.5, room temperature, 30 min, 10,000 means equivalent to or higher, read-out: IC50
[6] = molecular target: Thermosynechococcus elongatus PKUAC-SCTE542 protoporphyrinogen IX oxidase CyPPO19 (SEQ ID NO: 1) variant A167C (MBP fusion) (Thermosynechococcus sichuanensis, UniProt A0A7D6JSC1, A167C); test: biochemical
[7] = molecular target: Thermosynechococcus elongatus PKUAC-SCTE542 protoporphyrinogen IX oxidase CyPPO19 (SEQ ID NO: 1) variant V305L (MBP fusion) (Thermosynechococcus sichuanensis, UniProt A0A7D6JSC1, V305L); test: PPO enzyme inhibition assay (IC50 for herbicides), CyPPO19 V305L fused to MBP; assay type: biochemical
[8] = molecular target: Thermosynechococcus elongatus PKUAC-SCTE542 protoporphyrinogen IX oxidase CyPPO19 (SEQ ID NO: 1) variant V305M (MBP fusion) (Thermosynechococcus sichuanensis, UniProt A0A7D6JSC1, V305M); test: PPO enzyme inhibition assay (IC50 for herbicides), CyPPO19 V305M fused to MBP; assay type: biochemical
[9] = molecular target: Thermosynechococcus elongatus PKUAC-SCTE542 protoporphyrinogen IX oxidase CyPPO19 (SEQ ID NO: 1) variant A167I (MBP fusion) (Thermosynechococcus sichuanensis, UniProt A0A7D6JSC1, A167I); test: biochemical; details: 50 μM protoporphyrinogen IX, pH 7.5, room temperature, 30 min, 10,000 means equivalent to or higher, read-out: IC50
A. thaliana = test: PPO-inhibiting herbicide tolerance test of transgenic A. thaliana (herbicide spray, injury index); assay type: in vivo, Arabidopsis thaliana; details: transgenic A. thaliana (T2), tiafenacil or flumioxazin spray
[10] = tested on: PPO-deficient BT3 E. coli (ΔPPO); test: PPO-inhibiting herbicide tolerance test of PPO variants in E. coli (growth on herbicide-containing LB agar); assay type: cell-based; details: LB agar with 0 to 2,000 μM herbicide, 37° C., dark, 16-20 hours
Procedure, shortened: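 Tolerance was scored against wild-type enzyme: '−' for equal growth, one '+' per 10-fold gain, up to '+++++'. ΔPPO BT3 cells carrying variant plasmids, spotted as a 10-fold dilution series from OD600=0.5, grew 16-20 h at 37° C. in the dark on ampicillin LB agar containing 0 to 2,000 μM herbicide.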

[11] = CyPPO18 variants in BT3 (ΔPPO) E. coli
[12] = CyPPO19 variants in BT3 (ΔPPO) E. coli

Chain of Thermosynechococcus elongatus PKUAC-SCTE542 protoporphyrinogen IX oxidase CyPPO19 (SEQ ID NO: 1) variant A167I (MBP fusion) (A0A7D6JSC1 entry or part of it A167I): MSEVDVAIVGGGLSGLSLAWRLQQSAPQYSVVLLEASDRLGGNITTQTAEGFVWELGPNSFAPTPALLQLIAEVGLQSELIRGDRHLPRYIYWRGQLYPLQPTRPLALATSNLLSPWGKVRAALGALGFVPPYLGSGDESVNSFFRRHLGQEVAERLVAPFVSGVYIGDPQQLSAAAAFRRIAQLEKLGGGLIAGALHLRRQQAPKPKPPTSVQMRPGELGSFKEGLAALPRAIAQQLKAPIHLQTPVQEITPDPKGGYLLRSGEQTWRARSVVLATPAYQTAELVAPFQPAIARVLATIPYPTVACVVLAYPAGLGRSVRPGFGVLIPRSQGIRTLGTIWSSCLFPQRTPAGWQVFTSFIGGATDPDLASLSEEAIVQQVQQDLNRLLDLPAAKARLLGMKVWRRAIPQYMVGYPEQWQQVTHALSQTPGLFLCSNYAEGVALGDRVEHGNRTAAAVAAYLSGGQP
Chain of Thermosynechococcus elongatus PKUAC-SCTE542 protoporphyrinogen IX oxidase CyPPO19 (SEQ ID NO: 1) variant V165S (MBP fusion) (A0A7D6JSC1 entry or part of it V165S): as the sequence (A0A7D6JSC1 entry or part of it A167I) above, with V165S, I167A counted along it
Chain of Thermosynechococcus elongatus PKUAC-SCTE542 protoporphyrinogen IX oxidase CyPPO19 (SEQ ID NO: 1) variant V165C (MBP fusion) (A0A7D6JSC1 entry or part of it V165C): as the sequence (A0A7D6JSC1 entry or part of it A167I) above, with V165C, I167A counted along it
Chain of Thermosynechococcus elongatus PKUAC-SCTE542 protoporphyrinogen IX oxidase CyPPO19 (SEQ ID NO: 1) variant R89A (MBP fusion) (A0A7D6JSC1 entry or part of it R89A): as the sequence (A0A7D6JSC1 entry or part of it A167I) above, with R89A, I167A counted along it
Chain of Thermosynechococcus elongatus PKUAC-SCTE542 protoporphyrinogen IX oxidase CyPPO19 (SEQ ID NO: 1) variant V305L (MBP fusion) (A0A7D6JSC1 entry or part of it V305L): as the sequence (A0A7D6JSC1 entry or part of it A167I) above, with I167A, V305L counted along it
Chain of Thermosynechococcus elongatus PKUAC-SCTE542 protoporphyrinogen IX oxidase CyPPO19 (SEQ ID NO: 1) variant V305M (MBP fusion) (A0A7D6JSC1 entry or part of it V305M): as the sequence (A0A7D6JSC1 entry or part of it A167I) above, with I167A, V305M counted along it
Chain of Thermosynechococcus elongatus PKUAC-SCTE542 protoporphyrinogen IX oxidase CyPPO19 (SEQ ID NO: 1) variant A167L (MBP fusion) (A0A7D6JSC1 entry or part of it A167L): as the sequence (A0A7D6JSC1 entry or part of it A167I) above, with I167L counted along it
Chain of Thermosynechococcus elongatus PKUAC-SCTE542 protoporphyrinogen IX oxidase CyPPO19 (SEQ ID NO: 1) variant A167C (MBP fusion) (A0A7D6JSC1 entry or part of it A167C): as the sequence (A0A7D6JSC1 entry or part of it A167I) above, with I167C counted along it

CS(=O)(=O)NC(=O)c1cc(Oc2ccc(C(F)(F)F)cc2Cl)ccc1[N+](=O)[O-] [Fomesafen]
IC50 [1]: 1760 nM
IC50 [2]: 330 nM
IC50 [3]: 2360 nM
IC50 [4]: 242 nM
IC50 [5]: 348 nM
IC50 [6]: 843 nM
IC50 [7]: 466 nM
IC50 [8]: 257 nM
IC50 [9]: 899 nM

B1: CyPPO18 WT: PPO protein derived from Thermosynechococcus vulcanus NIES-2134 strain, SEQ ID NO: 3 (protein)
chain: MIEVDVAIVGGGLSGLSVAWRLQRSAPHYSGVLLEASDRLGGNITTQAAEGFVWELGPNSFAPTPALLQLIAEVGLHSELIRGDRHLPRYIYWRGELYPLEPTRPLALATSNLLSPWGKVRAALGALGFVPPYLGSGDESVDSFFRRHLGQEVAERLVAPFVSGVYAGDPQQLSAAAAFRRIAQLEKLGGSLIAGALRLRRQQPPQPKPPAQVQMRPGELGSFREGLAALPRAIAQQLKAPLHLQTPVEAITPEPKGGYLLRSGEQTWHARSVVLATPAYQSAELVAPFQPAIARALATIPYPTVACVVLAYPAGLGRSVRPGFGVLVPRGQGIRTLGTIWSSCLFPQRTPAGWQVFTSFIGGATDPDLASLREEAIVEQVQQDLTRLLDLPAAKARLLGMKVWRRAIPQYIVGYPQQWQQLTHALTQTPGLFLCSNYAEGVALGDRVEHGNRTAAAVAAYLAGGQS
modifications: Synthetic_PPO of Thermosynechococcus vulcanus NIES-2134 (BAY51976)
herbicide tolerance compared to non-transgenic plants (A. thaliana): increased herbicide tolerance

B2: CyPPO18 R89A + V165C + A167L + V305M + F360I: variant of CyPPO18 PPO protein (SEQ ID NO: 3) (protein)
chain: B1 chain with R89A, V165C, A167L, V305M, F360I
modifications: Synthetic_PPO of Thermosynechococcus vulcanus NIES-2134 (BAY51976)
tolerance level relative to wild type, Carfentrazone [10, 11]: ++ (‘+’ per each 10-fold resistance)
tolerance level relative to wild type, Flumioxazin [10, 11]: +++++ (until ‘+++++’ as maximal resistance)
tolerance level relative to wild type, Fomesafen [10, 11]: +++++ (until ‘+++++’ as maximal resistance)
tolerance level relative to wild type, Oxyfluorfen [10, 11]: ++ (‘+’ per each 10-fold resistance)
tolerance level relative to wild type, Saflufenacil [10, 11]: +++++ (until ‘+++++’ as maximal resistance)
tolerance level relative to wild type, Sulfentrazone [10, 11]: +++++ (until ‘+++++’ as maximal resistance)
tolerance level relative to wild type, Tiafenacil [10, 11]: +++++ (until ‘+++++’ as maximal resistance)

B3: CyPPO18 R89A + V165S + V305M + F360I: variant of CyPPO18 PPO protein (SEQ ID NO: 3) (protein)
chain: B1 chain with R89A, V165S, V305M, F360I
modifications: Synthetic_PPO of Thermosynechococcus vulcanus NIES-2134 (BAY51976)
tolerance level relative to wild type, Carfentrazone [10, 11]: ++ (‘+’ per each 10-fold resistance)
tolerance level relative to wild type, Flumioxazin [10, 11]: +++++ (until ‘+++++’ as maximal resistance)
tolerance level relative to wild type, Fomesafen [10, 11]: +++++ (until ‘+++++’ as maximal resistance)
tolerance level relative to wild type, Oxyfluorfen [10, 11]: ++ (‘+’ per each 10-fold resistance)
tolerance level relative to wild type, Saflufenacil [10, 11]: +++++ (until ‘+++++’ as maximal resistance)
tolerance level relative to wild type, Sulfentrazone [10, 11]: +++++ (until ‘+++++’ as maximal resistance)
tolerance level relative to wild type, Tiafenacil [10, 11]: +++++ (until ‘+++++’ as maximal resistance)

B4: CyPPO19 WT: PPO protein derived from Thermosynechococcus elongatus PKUAC-SCTE542 strain, SEQ ID NO: 1 (protein)
chain: T1 sequence (A0A7D6JSC1 1-467)
modifications: Synthetic_PPO of Thermosynechococcus elongatus PKUAC-SCTE542 (comprising GenBank No. CP032152.1)
herbicide tolerance compared to non-transgenic plants (A. thaliana): increased herbicide tolerance

B5: CyPPO19 R89A + V305M + F360V: variant of CyPPO19 PPO protein (SEQ ID NO: 1) (protein)
chain: T1 sequence (A0A7D6JSC1 1-467) with R89A, V305M, F360V
modifications: Synthetic_PPO of Thermosynechococcus elongatus PKUAC-SCTE542 (comprising GenBank No. CP032152.1)
tolerance level relative to wild type, Carfentrazone [10, 12]: + (‘+’ per each 10-fold resistance)
tolerance level relative to wild type, Flumioxazin [10, 12]: +++ (‘+’ per each 10-fold resistance)
tolerance level relative to wild type, Fomesafen [10, 12]: + (‘+’ per each 10-fold resistance)
tolerance level relative to wild type, Oxyfluorfen [10, 12]: + (‘+’ per each 10-fold resistance)
tolerance level relative to wild type, Saflufenacil [10, 12]: +++ (‘+’ per each 10-fold resistance)
tolerance level relative to wild type, Sulfentrazone [10, 12]: ++ (‘+’ per each 10-fold resistance)
tolerance level relative to wild type, Tiafenacil [10, 12]: +++ (‘+’ per each 10-fold resistance)
